Here are results for five molecules from publication PMC8277605, “Binding of gephyrin to microtubules is regulated by its phosphorylation at Ser270” (Histochemistry and Cell Biology, 2021).

The target in data set [1] is microtubules polymerized from endogenous tubulin of HEK293T cell extracts (human (endogenous in HEK293T)) (UniProt P68363). Description: co-sedimentation; MT co-sedimentation assay with HEK293T lysates only (gephyrin alone, gephyrin or mutant gephyrin with CbII(-SH3)); endogenous cellular tubulin polymerized with 2 mM GTP and 20 uM paclitaxel in MES buffer; 100,000 x g; immunoblot with mAb7a, R-20, DM1alpha; band ratios standardized to the tubulin signal. (In general: Immunoblotting shows a protein as a band on a membrane.)
Sequence of microtubules polymerized from endogenous tubulin of HEK293T cell extracts (human (endogenous in HEK293T)) (P68363 whole entry, chain 1 of 2): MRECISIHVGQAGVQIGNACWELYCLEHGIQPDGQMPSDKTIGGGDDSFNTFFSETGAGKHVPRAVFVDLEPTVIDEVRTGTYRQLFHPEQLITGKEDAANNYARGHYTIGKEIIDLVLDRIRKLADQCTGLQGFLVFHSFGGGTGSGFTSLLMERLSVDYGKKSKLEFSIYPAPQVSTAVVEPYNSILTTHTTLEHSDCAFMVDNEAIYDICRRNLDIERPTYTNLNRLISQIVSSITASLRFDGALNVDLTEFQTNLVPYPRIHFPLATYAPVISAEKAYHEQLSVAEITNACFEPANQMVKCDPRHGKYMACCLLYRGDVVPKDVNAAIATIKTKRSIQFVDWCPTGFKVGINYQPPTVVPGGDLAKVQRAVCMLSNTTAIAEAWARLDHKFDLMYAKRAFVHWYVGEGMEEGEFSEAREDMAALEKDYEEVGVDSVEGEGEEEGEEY
Sequence of microtubules polymerized from endogenous tubulin of HEK293T cell extracts (human (endogenous in HEK293T)) (P07437 whole entry, chain 2 of 2, further chain): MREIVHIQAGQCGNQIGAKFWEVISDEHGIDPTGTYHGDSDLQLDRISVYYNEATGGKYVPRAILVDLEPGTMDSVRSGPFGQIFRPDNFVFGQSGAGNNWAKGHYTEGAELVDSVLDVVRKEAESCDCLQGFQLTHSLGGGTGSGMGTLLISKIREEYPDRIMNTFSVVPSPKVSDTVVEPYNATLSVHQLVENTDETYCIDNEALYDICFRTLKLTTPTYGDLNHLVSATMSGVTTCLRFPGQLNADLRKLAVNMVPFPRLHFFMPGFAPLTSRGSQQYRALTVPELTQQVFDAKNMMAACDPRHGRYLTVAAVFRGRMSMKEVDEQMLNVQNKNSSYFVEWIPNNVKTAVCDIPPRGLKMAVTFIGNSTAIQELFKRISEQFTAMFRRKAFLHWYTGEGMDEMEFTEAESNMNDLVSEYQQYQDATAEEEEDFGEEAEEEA

Data set [2] deals with the molecule itself. The experiment in a line: native gel or EMSA; blue-native PAGE of 100 ug cytosol per lane, second dimension 12.5% SDS-PAGE, Western blot for gephyrin; NativeMARK standard. (Mobility shift assays separate free from complexed probe on a gel.)

As for “recombinant gephyrin (P1) phosphorylated at Ser270 (detected by mAb7a) (natural protein)”, the ratio of the mAb7a signal in the insoluble to soluble fraction in data set [1] was determined as 0.17. On the same count and under the same terms, for “recombinant gephyrin (P1), N-terminally 6-histidine-tagged (natural protein)” the value was 1.5.

B1: gephyrin from liver tissue (natural protein, UniProt Q03555 1-768, looked up)
chain: MATEGMILTNHDHQIRVGVLTVSDSCFRNLAEDRSGINLKDLVQDPSLLGGTISAYKIVPDEIEEIKETLIDWCDEKELNLILTTGGTGFAPRDVTPEKFPTFPFCGLQKGATKEVIEREAPGMALAMLMGSLNVTPLGMLSRPVCGIRGKTLIINLPGSKKGSQECFQFILPALPHAIDLLRDAIVKVKEVHDELEDLPSPPPPLSPPPTTSPHKQTEDKGVQCEEEEEEKKDSGVASTEDSSSSHITAAALAAKIPDSIISRGVQVLPRDTASLSTTPSESPRAQATSRLSTASCPTPKQIRRPDESKGVASRVGSLKVQSRCSSKENILRASHSAVDITKVARRHRMSPFPLTSMDKAFITVLEMTPVLGTEIINYRDGMGRVLAQDVYAKDNLPPFPASVKDGYAVRAADGPGDRFIIGESQAGEQPTQTVMPGQVMRVTTGAPIPCGADAVVQVEDTELIRESDDGTEELEVRILVQARPGQDIRPIGHDIKRGECVLAKGTHMGPSEIGLLATVGVTEVEVNKFPVVAVMSTGNELLNPEDDLLPGKIRDSNRSTLLATIQEHGYPTINLGIVGDNPDDLLNALNEGISRADVIITSGGVSMGEKDYLKQVLDIDLHAQIHFGRVFMKPGLPTTFATLDIDGVRKIIFALPGNPVSAVVTCNLFVVPALRKMQGILDPRPTIIKARLSCDVKLDPRPEYHRCILTWHHQEPLPWAQSTGNQMSSRLMSMRSANGLLMLPPKTEQYVELHKGEVVDVMVIGRL
notes: gephyrin endogenous in liver tissue; source: endogenous, liver protein extract
With B1, the “stoichiometry N” value in data set [2] turned out to be 6.

B2: gephyrin, endogenous in HEK293T cells (natural protein, human (endogenous in HEK293T), UniProt Q9NQX3 1-736, looked up)
chain: MATEGMILTNHDHQIRVGVLTVSDSCFRNLAEDRSGINLKDLVQDPSLLGGTISAYKIVPDEIEEIKETLIDWCDEKELNLILTTGGTGFAPRDVTPEATKEVIEREAPGMALAMLMGSLNVTPLGMLSRPVCGIRGKTLIINLPGSKKGSQECFQFILPALPHAIDLLRDAIVKVKEVHDELEDLPSPPPPLSPPPTTSPHKQTEDKGVQCEEEEEEKKDSGVASTEDSSSSHITAAAIAAKIPDSIISRGVQVLPRDTASLSTTPSESPRAQATSRLSTASCPTPKVQSRCSSKENILRASHSAVDITKVARRHRMSPFPLTSMDKAFITVLEMTPVLGTEIINYRDGMGRVLAQDVYAKDNLPPFPASVKDGYAVRAADGPGDRFIIGESQAGEQPTQTVMPGQVMRVTTGAPIPCGADAVVQVEDTELIRESDDGTEELEVRILVQARPGQDIRPIGHDIKRGECVLAKGTHMGPSEIGLLATVGVTEVEVNKFPVVAVMSTGNELLNPEDDLLPGKIRDSNRSTLLATIQEHGYPTINLGIVGDNPDDLLNALNEGISRADVIITSGGVSMGEKDYLKQVLDIDLHAQIHFGRVFMKPGLPTTFATLDIDGVRKIIFALPGNPVSAVVTCNLFVVPALRKMQGILDPRPTIIKARLSCDVKLDPRPEYHRCILTWHHQEPLPWAQSTGNQMSSRLMSMRSANGLLMLPPKTEQYVELHKGEVVDVMVIGRL
notes: human gephyrin, endogenous in HEK293T cells; also called endogenous gephyrin; source: endogenous, HEK293T protein extract (cytosol)
Take B2: in data set [2], the “stoichiometry N” value is 6.

B3: gephyrin, endogenous in U2OS cells (natural protein, human (endogenous in U2OS), UniProt Q9NQX3 1-736, looked up)
chain: B2 chain
notes: human gephyrin, endogenous in U2OS osteosarcoma cells; also called endogenous gephyrin; source: endogenous, U2OS protein extract (cytosol)
In the case of B3, the “stoichiometry N” value in data set [2] came to 6.

The stoichiometry N is the number of molecules, sites or subunits per partner or assembly.
